From US20180086841A1 (Merck Sharp & Dohme, published 2018)
Residue numbers refer to the chain shown, from its start.

Columns and labels:
R93A = biological target: T1, R93A; assay: flow cytometry on CHO-K1 transfectants, left sub-column
T1 construct: also called hCD27 R93A
T1 receptor chain: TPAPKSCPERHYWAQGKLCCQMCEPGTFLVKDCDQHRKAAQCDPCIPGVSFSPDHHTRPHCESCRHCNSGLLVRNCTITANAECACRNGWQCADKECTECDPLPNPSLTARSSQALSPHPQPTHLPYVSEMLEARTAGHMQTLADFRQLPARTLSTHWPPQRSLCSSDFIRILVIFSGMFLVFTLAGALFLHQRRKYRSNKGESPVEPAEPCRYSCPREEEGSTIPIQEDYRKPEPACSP
Method: (§1) The hCD27 variants that were tested are listed. Amino acids correspond to the UniProt P26842-1 sequence. Amino acids 1-20 constitute the signal peptide. Binding is expressed as the geometric mean of the FITC signal, relative to antibody binding to hCD27, which was set at 100%.
(§2) The ability of several anti-hCD27 antibodies to bind to a series of hCD27 alanine mutants was determined using CHO-K1 cells, transiently transfected pCI-neo empty vector, pCI-neo.hCD27 and several pCI-neo.CD27Ala mutant constructs.
(§3) Detached cells were transferred to 96 wells round-bottomed well plates at approximately 1.2×10⁵ cells/well. After spinning down the cells, discarding the supernatants and re-suspending the cells in the residual volume, the primary antibodies were added and incubated for 30 minutes at 4° C. Cells were washed three times with DPBS/BSA 1%, followed by centrifugation, discarding of the supernatants and re-suspension in the residual volume. […] After washing once, antibody binding was detected using the HTS plate reader (FACS Canto II) and FlowJo software for data analysis. Debris, dead cells and doublets were excluded from the analysis. Binding was expressed as the geometric mean of the FITC signal, relative to antibody binding to hCD27, which was set at 100%.

K31A = biological target: T2, K31A; assay: as above
T2 construct: also called hCD27 K31A
T2 receptor chain: T1 receptor chain with K31A, A93R
Method: as §1, §2, §3

B1: hCD27.131A (mouse parental 131A) (antibody, mouse IgG1, V domains shown)
VH: QIQLVQSGPELKKPGETVKISCKASGYTFTNYGMNWVKQAPGKGLKWMGWINTNTGEPTYAEEFKGRFAFSLETSATTAYLQINNLKNEDTATYFCAREGDAMDYWGQGTSVTVSS
VL: QIVLTQSPAIMSASPGEKVTMTCSASSSVSYMHWYQQKSGTSPKRWIYDTSKLASGVPARFSGSGSGTSYSLTISSMEAEDAATYYCQQWNSYPFTFGSGTKLEIK
notes: Mouse IgG1 antibody; also called mouse hCD27.131A
binding, WT hCD27 = 100 (GM FITC) (R93A): 125% | binding, WT hCD27 = 100 (GM FITC) (K31A): 203%
